Data: the NTF2 design screens of Basanta et al. (2020)

test: protease stability score; higher = more stable; yeast display proteolysis, trypsin and chymotrypsin;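 also: relative to predicted unfolded state with 0 unfolded-like and 1 meaning tenfold more protease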

Sequence	protease stability score
DEEDEETREIAEMLHRWFITGDWKALMKYVDPNMRNIIHVNGRNIHTHGWKDMVKDLKDLGLENIHVDLKSISFQGDKAHIDGQLRVGDKEEKVEIHSEVVNGRIKRLEIRVH	1.9
GEMEKLLFKIFEEWMKLRKTGDEDVIAHLADPDYRWDVNGVDLHGMEHVKEFTEEFLRHLGFDHQEYRIRRFDHDGNKLRADTEVRIVVNGVDITHRTHIIIVQFNGKVKSVKERIR	0.292
SEIHELAILVLKWLLDSMSTGDEESLRRLLDPHTRIHIDGKDLHGRHFLERILQEIRHEVKEYHIRDVRDINGVVTLDAHVRGNEYFDGRNHEHRTDTRLIIDKINGRWRIRELKFE	1.12
SEEEEHSKFLAEILLELMRTGDWRTFEELVDPNARLEIIQGDFTIDIHGREEVSKFLKNEVEQFKNMRVELHRQSAQGNKLHIDGRLKVGDKSHELRIHINVINGKLKQVKIEID	1.72
DEEEEKAKHVLELWSRAMLTGDEDEYKKLADPHTRLIVDGQTFHGWENFTKSHNQIKNIKIDDVHVENHHIQGNKMFVDLRFEMEFNGRILHKETHLFIEKIDGKWLIRTQEIH	0.767
DETTHELEWFTKIVAHAIETGDFEVMLNLIDPNVRVQEIIDGREIEFHGWHAFEHWMRKFKNITIIIRHVHHQGNKVEIEGEIDFNGKRRDVRIRFHVWNGRVKEFRHEER	1.52
DEDEEESRRFTEILLHKFWTGDEDWYRKMADPNDKSVVGDKLFHGRDEVDRAIHEFLRHLGVDHFELHRLEVDHYNGKAEVRSDMILRVNGQERRMILKVHNTKFNGRWTLESVRIESR	0.715
AREEEIVEEMARLMRHLWTTGDEEKIDEMLDPDVRVEWRVNGVHLENHGRDQFIRILRRFSDEWRLRSLHDETFRIQGDKVEVDSRFDVQVNGQRDILETEFHLVVVDGRIRHVEIIIK	1.6
SRIEKLIEHLVHLWLEIWRTGDEHSFTRLLDPHVRLRIGDKHFIGREDVVKFLRDHEKEWREDDVEIRDIRTQGDFLEVEITITGRFNGRDITREFRITMIVVDGRVKEIRISYE	2.05
DEEEKMHTKAVELTETILKTGDERIIKEMADPNTRVIFDGVDLHGMEHWTEFWRRLGFKHIEIRTTEVVDGRVIIIQHVRYNGKKHESHVYADKIDGRWLYTHVEIR	0.618
SESQEVLEMAIRIWRHTVKTGDEREIAELMDPHVRIEVGDKEFIGRELVSHWFLRFSEHMRIHDIEIKRYHVVGNKAHIHTVVDGEVDGKRDYTEVELIVEKVDGRWLIRSMKIR	2.49
DENEETMRHYFELLVRNLRTGDWHSLTRLMDPHVRLEYNGREFHGMEEVIRFLLHIRLRHLHLERVEIQGDKVRMHVSVDGEVNGRREEWDVELIARKIDGRWIQTSEIYR	0.212
SEEEEISKELARLWLHLFFTGNEEKLTELFDPNARLIVGDKQRHGRERVIKIFHEWLLELGIDYLDIHHIEFQGEKVHMNTKVRQGDFETRTEVNLIIVNGRIKEVRFDLR	1.19
SEEEHLSKLTKKHMLHLWETGNETILEELADPNARHRWLVNGKEVTAHGREEVTRLFRDILDELGVDHLKLHSETVIGEKIHFDMIMIIGEFESRVRLNLHIVNGRIKEIDLQEQ	0.445
DDKDQHEEVEKFARNVVSGNSDELRKQMDKDVRANVGDKTLRGREEVADFWKHMRDRIDHAEIKEIRFHNGEARIVMQFVHNGRTKQINIVMEFHDGHVKRLRVEDG	2.58
SELEKELREFIKKVVEALATGDEDLLRELFDPHVRVKIGEWHFIGMEEMLRLIREIRMEIEEVRITELQIQGDKIHMETRLHGRLHIGDKERQTHYSTRVNVRKIDGQWITKSWEVH	2.04
DEKEEILVDLFKHFLEAMLTGDEEQVNRLVDPNARHDIDGVEHHGWEFLEWFLSRVDHIELLEVKRVRNIDGRIEADLHIDITVNGKKERHDVEVHIVIIDGVFHSIKVIKH	2.23
DEETRDFDVAFMYFILFEKTGDERELLELLDPDARMVVGDKRRVGRESVLHFMREHLRTLGFKHVEDIELHDFKVYDGRIELDIRVRGRVNGKTHTLTYLMIAHKVDGRWFIHSLEVR	2.14
SEEERVAIEHMRWVIRALLTGDEELLRHLFDPSTRFDFDGQHRIGMEDLVRFWRHLRVRRFEIEDERVHFQGDKIEARTEGRIQGDINGKNVEREIRVILIVMKIDGKWIIRIISHEVD	1.63
SEHDEHIEHLLKEIIEDIETGDWHHWRHLADPHTRMEVGDKEKHGWKVYFEILHRYRGARLEFKSVDVQGDKIHVETHVHVNGRSFDTELRFYIVNGKMQEVIIQFR	0.85
DEDHKWAKFMFEVFKKVVETGDEEVFKHLADPNVRMEVGDKEFIGREEFRRFLNELRIHHQRDTHIEIRSVGDKIEVLIDGETTIEVGDKTRDHRMRVILFTMKVDGRWLIRSIRFEIH	1.56
DEDKKLAHESFRIWLHWMRTGDEKMMEELMDPNTRTYFEGHSDHGRSAARQYANRIDHIHHIHVHHIEIQGDKVEVDGRLDGVVNGKRIDVRIVIESVKVNGKWIVRSIEEH	1.41
TEDEKVMKEAVEIQIHMFRTGNWDSLHKLVDPNARLDVDGREFHGREDFVRFIKKEAHEARVEDVIFRHVTTQGDKIVTHFDVRGVINGVEEIRKVTVFLRKINGRWLIESEEID	0.737
DEDERMIDEYLKKLVKSLITGDEETFTRLVDPHARHDFNGVEYHGWLWLHMVRKRADHFEVRIKNSEVQGDKLRLDFELIFRQGDKTITLKIQVIITKVDGRWIITSIDHD	1.79
DEHHKHVKEMLDLWRRNMETGDWDEIHKLADPHVRMIIFVGDKEIHSHGREEVHRVLEEWIRRMGVDHLVLHDVTLQGNKIIIDTQRNFDGRYLDTSEIIIVVNGRIKEVTFEEK	0.341

Sequence	protease stability score
SEEDEEAERWVRMLEHLIRTGDEEILNSFADPNVRYIQGDKHLHGRETVYEYLEELWRKLGVDHMNIKDRHLRVFNGRVHLQLFVHFTVNGRSFDSILRFDTIKIDGQWHMHRIVVEII	1.31
SMEEMSELYIKWWMTGDWDKLTNNADPHTRVNVGNFESVGMEHLIELMLRHVKHFGINHSILRSHDTQGDKVHVDGELHVNGRTARIVLHLEIVNGRIKSESVESRSEVFEEHLHKVLR	0.635
SEEEHYRREMIHFSREVWETGDWDSLMNLADPNVRIEAENHDLHGREFFVKLMEEISRKFKNVRIIIRHLHIQGDKVEMHSEIIFNGRSVHVTFFALKVNGRWIFKEMVFI	0.925
DKFERDLEEALREVLEALETGDEDRLLNLFDPHARIDIDGRDLHGWEDLTRELREIRIRHIHLHDRRIQGEWIHFDTITDGEFNGQRTTVRTHILMLKFDGRWMIREVTFI	1.51
SEDEDELKEWIRIIIHLLTTGNEDLIENNADPNVRIEFNGKTYHGMEDFHEWMRYAINELRFHDFRLDSFRIVNGKVDLNTTLIGNINGVLTRRETRMIIIKVNGRWLIHALVFK	1.75
SDFEEITRKITEIITRAFFTGDWRQIERLMDPEVRNELTIGDKRIERHGRENLVHLLEEAGIDVIRIRSVEIRFFNGRLEVRIDHEVTINGVHFKTVIVVIMIKIDGRWVVHSWSFHFE	0.959
DEHEEDARRDLEKLARSLKTGDEDSLRTLFDPNTRNDVNGKDFIGWEELLRILREWRFHDMKVEDLEVQGNKVISHVRLDGTFDGRRDEMHVEIRAEKVNGRWRIRSYIVR	1.77
SEDDEDVERAAKLMLHILRTGDERHLHEYLDPNVRSIVNGREFHGRESLLHVMTLQMRELGIDHINVRRVKYDEDEVHFFMNVNINGQHREVIFRAKKINGRWIFHEVELR	1.7
SETEETSRHLMEMFEKSMLTGDEEHYKRMADPNVRMHINGQEYVGWEDFTRILREIRTEEVRFKVKRYDLVGEYLHVDLRIERDTHVNGVKVEFRTEAELIVVKVDGRWIVKEVRIK	1.27
DEYREEARKLMHDTAKHLHTGDEDMTNHYLDPNVKIQINGQEIHGMDKFEHDSRRFKGAKNDVRFELRLIQVIGDKVRIDGELYVRIRVGDKEYSFEVKVDIVVTKVDGVWKIKEIKIE	0.806
SEDEEMLRKILELLVESLLTGDWKTVARLADPHVRLEIGDKIFHGRERFIDHLKLLGIDHIEIRLRDMKIIGDKLDTEVEVVERVGDKEIHRDTTLHIRKVNGRWLIKKVILE	2.01
SEDKHMLELALKLLKDSWKTGDEHLSERLMDPHVRLEQGDKEFHGREASQLWFRQIDHVEDMHVHRIRMINGKAYMDVHVVGNVNGKHVEFHQHIVFHKVNGRWIVESVVDS	1.26
DETKEAIDRLFEVIHRMMITGDEHEFMKLVDPNVKVIQGEKIYHGREVIVNMLREILKWAGVENIQSHLDPERVHIQGDKLLVRGRLELRIGDKSEERDVEFVVVKVDGRWLIRVWKIE	2.74
DEFNEATRRALHEEMKTRHTGDEDLFHRLADPDVRVIYGDKHIHGREEVVHWLREIRVKTHHLEIRRSHFQGEKAHVDGKLNGDFIFDGRTFTVQIHVEFIMIKWNGQWRIEMLRFE	1.09
SERREFSNFTMQMTITVTLTGDFHTSHRFVDPHARWEQGDKEYHGREIFAKTLLDKSSELGVDHYDIKTIHIQGEKVTVHLRVEVNGVEFELILRAHKINGVWLMESVEVRER	0.971
REDEEHTKELLDAWQEAVETGDEDFILELFDPHVRSQVGDKERHGRHSFLELLRRLLEELGFDHVQFHITHREIQGDKITVETRLIFEYGDKRLEVQVEVEVKKINGRWYIHSVRWK	1.87
SEQEKELQDALEILMHRWLTGDEDFLYEMMDPNVRFTINGQDFHGRDFFRQKWKELGLTRVEIDLKFVRLQGDKATVHGHINFNGRTTDVIMYIDKVNGVWITKTIEFR	2.17
DEEEEMSKELAELLVKAFVTGDWEEMTSMADPRTRTDVNGKDLHGWDESLRVIEELLRKMGIKHSNIHTVRVQGNWIHIDIRVIVGDKYHEVEIRVLVVNGRLKYLEYRIK	1.98
DELDRTVEEVSRYFMRNYITGNEERLWEMADPHVKFISEHHESHGMEEHKKFLEEAGITNVKFDIHDQKVFNGVVVVNGKIHVNGRTVDVRLISEKFDGRWHLHIIRVD	1.15
SEDDEDNERWFERLLHSLHTGNEELTRKLMDPNVRVDFNGKDLHGMDHMVKLVRHLRNRVDHLHMLVHHSDNINGVAHNDVTLELRYGDKTERLRVRIVASKVDGRWILKSVEID	1.28
DEERVKQVQKKAFEAVMKGNDDEMRKIGKPNVRYEYIDEKNEGQEAVDVVIQLVKKVGAEAKVRRTEVKGDTVRAIFVYNDGDQTVQTKVEVKYEGDKVKEARVELTDEVQKVLHKG	-0.027
DDHEKIVQHLLEEIIEIWLTGNFEEHLKRFDPDMRLNVNGVEHHGRESNERWFNKQIERYKNATIHHRIESVDVQGDKVHSDGELIYIQGDKIIRTKIIVRLLVVNGRIKRIEIEMI	1.31
SEEVEHAEKVMRHTVHNIETGDEETWSNLADPNVLFQQGEFNLHGRELMFEWVRKYYEKIKNARIEIEDVRVFDGQIEFDVTWRVGDKHLKVHLHIEVINGRITEVRVDEK	0.98
DEEEESNRHLAEKFEEHHRTGDWRMMSKMFDPHVRVERIFNGRTVIIHGWEKYVKTVKDEFERIKGARLIIDDMKVQGEKSRVEGTLKINGRTVEVDIHLDIVDGRLRHVRIEIE	0.201
DEHEHLALRMTTRFTDMLRTGDWENMLRYFDPDARIIIDGRKHHGRERMHEIWREIRVTDLRINRERVRVQGDFVINHIDGEEDVEIGDKRISTRSIIILVVHKIDGRWHMKELEINIV	0.796
